Results on four molecules are retold here after patent publication US8283521B2, “Transcription factor gene induced by water deficit conditions and abscisic acid from Helianthus annuus, promoter and transgenic plants” (Bioceres S.A., priority 2003, dated 2012).

The subject of this data set is gus gene. Description: Histochemical analysis of β-glucuronidase activity in transformed plants. As to conditions: for induction of the promoter construct by ABA: gus reporter, ABA treatment; for expression of gus gene in different development stages and organs: several independent lines, all studied organs; for expression of gus gene in cotyledons: 2-day germination seedlings. Format: in vivo, Arabidopsis thaliana. The text has this: When the construct including the complete segment of the small allele was employed, the expression of the gus gene in the cotyledons of 2-day germination seedlings was also viewed. However, and differing from the region 0 to −400, the expression of gus gene was very intense in the leaves and roots of the young seedlings (FIG. 20).
The inventive plants from A. thaliana that resulted resistant to kanamycin in the selection and PCR reaction of were subjected to histochemical β-glucuronidase activity test. The tested embryos and organs were washed with buffer 50 mM Na2HPO4 pH 7. They were then transferred to a solution 50 mM Na2HPO4 pH 7.0, 1% Triton X-100, 2 mM X-gluc (5-bromine-4-chlorine-3-indolil β-D-glucuronide), subjected to vacuum for 5 minutes and incubated at 37° C. in darkness between 2 and 12 hours. After incubation they were fixed in 10% formaldehide solution, 50% ethanol and 5% ascetic acid for 10 minutes at room temperature. Formaldehide was removed, ethanol 70% was added and conserved at 4° C.
The histochemical analysis was made in 2, 10 and 20 day-old seedlings grown in Petri dishes containing MS medium and 0.8% agar and adult plants grown in flowerpots containing soil.

B1: region 0 to −300: promoter fragment, nucleotides 904 to 1221 of SEQ ID NO 3, in pBI101.3 (nucleic acid, listed as Helianthus annuus)
DNA: AACCTAAGTCCGCCTTTGTCTGGATCACGTGAAACATCAGGTCTCTCCCTTACCAGTCCAGCTACGACTCATTGACAAAATATCAAAACCATATGATTTTGAGTTTTATCTCAACCGAAAGTGACATCATGACAGAGAATCGACATAACCAAAACGTGTAAACGTACAACTCACCATTGCGTTGAAAAGGACAAAACAGGTAGGATTCTTGTCAAATTCAACGCGTACACCTGTGCTTCATCTAAACCCCATACTTTAAGAACCTTTATAAAGACCACTCACTATATATACACATATATAATATCACTTATCAAACCC
modifications: in pBI101.3; promoter (1)..(1221) Large allele
B1: the “induction of the promoter construct by ABA” value (from here on “induction”) is on record as “not induced by ABA”; the “expression of gus gene in different development stages and organs” value is reported as “not expressed”.

B2: construct 0 to −400: Hahb-4 promoter fragment, nucleotides 805 to 1221 of SEQ ID NO 3, cloned into pBI101.3 driving gus (nucleic acid, listed as Helianthus annuus)
DNA: GGATGCGAACGAGTGGTTTAACCATACTTTTAAGAGGTGCGATCGGAAATTTTACCTATAAAATACACTAAAAAAGTTCCAAGGGTCCACCCACCCCTTAACCTAAGTCCGCCTTTGTCTGGATCACGTGAAACATCAGGTCTCTCCCTTACCAGTCCAGCTACGACTCATTGACAAAATATCAAAACCATATGATTTTGAGTTTTATCTCAACCGAAAGTGACATCATGACAGAGAATCGACATAACCAAAACGTGTAAACGTACAACTCACCATTGCGTTGAAAAGGACAAAACAGGTAGGATTCTTGTCAAATTCAACGCGTACACCTGTGCTTCATCTAAACCCCATACTTTAAGAACCTTTATAAAGACCACTCACTATATATACACATATATAATATCACTTATCAAACCC
modifications: cloned in pBI101.3 driving gus; promoter (1)..(1221) Large allele
Turning to B2, the “expression of gus gene in cotyledons” value is given as “enough to drive the expression of gene gus” and the “induction” value is “capable of being induced by ABA”. Moreover, where the note is “10 germination days”, the “expression of gus gene in young seedlings” value was “not detectable”.

B3: construct including the complete segment of the small allele: promoting region from 0 to −1015 (small allele, SEQ ID NO 10) cloned in pBI101.3 driving gus (nucleic acid, listed as Helianthus annuus)
DNA: GATCCAATTGGACCACCTGGCACATCGTATCTTATCTCTTTTGTCGTTTCCAACACACCACAACACACCTACAAACGTGTCAATTCACACTTCACCAATTTCATTTCCTTTTAGTCAATCATATTAAAAGTAGTAGCCCCCACCCCCATTTGTTACCTACCATTTCCCACTTTAATAATCACCCACGCTATGTCCACTTGTACTTTTGTTTGCACACAACTCTTCCCATAAAATATCAAACCAAATTTTTTTTAATGGAAAACAAATACTTCAAATGCACTATTGGTGAAATTCACCACATCAGAATACACCCGTCTCTACTCATCTACTGGCCAACGAATCTTCACGGGGGAAACCCTCACTCGTCTACTGGGACTACTGGCGCTTCAAAATGGACTACTGACAAAATTCACCACATCGGGATACACTTGTCTACTGCGGTGAGGTAAAATCCGCCGCTCAGCTCAATGATCGAACTAGCGATCGCCACCCACTCACCTTGTCTCCCATCATCACCAGGTGCCGCCAAAACAAAATGTTGGGGGCGGGAATTGAACCTAGGTCCAGTGGCGCACCCATGAATTTTTTTTCTAGGGATGCGAACGAGTGATTTAACCATACTTTTAAGAGGTGCGATCGGAAATTTTACCTATAAAATATACTAAAAAAATTTCAAGGGTCCGCCCACCCACCCCTTAACCTAAGTCCGCCTCTGCCTGGATCACGTGAAACATCAGGTCTCTCTCTTACCAGTTCACCTACAACTCATTGACAAAATATCAAAACCATATGATTTTGAGTTTTATCTCAACCGAAAGTGACATCATGACAGAGAATCGACATAACCAAAACGTGTAAACGTACAACTCACCATTGCGTTGAAAAGGACAAAACAGGTAGGATTCTTGTCAAATTCAACGCGTACACCTGTGCTTCATCTAAACCCCATACTTTAAGAACCTTTATAAAGACCACTCACTATATATACACATATATAATATCACTTATCAAACCC
modifications: cloned in pBI101.3 driving gus
On to B3, for which the “expression of gus gene in cotyledons” value was “also viewed”. For the same molecule, where the note is “reproductive stage”, the “expression of gus gene during the reproductive stage” value is “not detected any expression”. Besides, the “expression of gus gene in leaves and roots” value (young seedlings) was “very intense”.

B4: region 0 to −200: promoter fragment, nucleotides 1011 to 1221 of SEQ ID NO 3, in pBI101.3 (nucleic acid, listed as Helianthus annuus)
DNA: ATCTCAACCGAAAGTGACATCATGACAGAGAATCGACATAACCAAAACGTGTAAACGTACAACTCACCATTGCGTTGAAAAGGACAAAACAGGTAGGATTCTTGTCAAATTCAACGCGTACACCTGTGCTTCATCTAAACCCCATACTTTAAGAACCTTTATAAAGACCACTCACTATATATACACATATATAATATCACTTATCAAACCC
modifications: in pBI101.3; promoter (1)..(1221) Large allele
In the case of B4, the “induction” value was “not induced by ABA”; the “expression of gus gene in different development stages and organs” value is given as “not expressed”.
